{"source": "paper doi:10.1101/509299", "about": "(bioRxiv, 2019)", "target": "integrin αIIbβ3 on K562 cells stably expressing recombinant αIIbβ3 (αIIbβ3-K562) (UniProt P08514 32-1039; P05106 27-788)", "assay": "flow cytometry on cells"}
{"binder": "RGDWPC (homoarginine (Har) at position 2)", "note": "[Eptifibatide]", "values": [{"measurement": "IC50", "value": 73.2, "unit": "nM"}]}
